Assays:
[1] = target: T1, hu-MCSP(D3 domain)-avi-his (human, UniProt Q6UVK1 1582-2224, biotinylated where used for selection or for coupling to the SA chip); experiment: SPR (ProteOn XPR36), IgG KD against parental M4-3/ML2
T1 construct: also called human MCSP(D3 domain)-avi-his; human MCSP D3
T1 sequence: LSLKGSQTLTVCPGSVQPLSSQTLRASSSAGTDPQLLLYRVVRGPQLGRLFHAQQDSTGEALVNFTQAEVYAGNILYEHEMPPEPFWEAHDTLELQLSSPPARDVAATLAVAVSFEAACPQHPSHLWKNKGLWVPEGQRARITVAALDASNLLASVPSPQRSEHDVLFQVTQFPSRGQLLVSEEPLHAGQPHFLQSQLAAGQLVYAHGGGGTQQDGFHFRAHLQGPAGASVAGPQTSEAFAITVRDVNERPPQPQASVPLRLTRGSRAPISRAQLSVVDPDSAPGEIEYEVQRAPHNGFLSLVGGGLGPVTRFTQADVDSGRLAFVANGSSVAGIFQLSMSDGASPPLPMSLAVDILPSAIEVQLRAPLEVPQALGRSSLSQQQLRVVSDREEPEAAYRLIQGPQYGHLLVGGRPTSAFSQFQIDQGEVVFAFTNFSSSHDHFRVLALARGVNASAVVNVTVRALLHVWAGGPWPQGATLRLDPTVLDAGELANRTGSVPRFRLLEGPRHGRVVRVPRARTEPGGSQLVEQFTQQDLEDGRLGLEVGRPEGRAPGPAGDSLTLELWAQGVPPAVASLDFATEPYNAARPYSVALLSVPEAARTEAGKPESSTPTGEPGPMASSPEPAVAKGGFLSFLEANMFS
Description: (§1) Briefly, carboxymethylated dextran biosensor chips (CM5, GE Healthcare) were activated with N-ethyl-N′-(3-dimethylaminopropyl)-carbodiimide hydrochloride (EDC) and N-hydroxysuccinimide (NHS) according to the supplier's instructions. Anti-human F(ab′)2 fragment specific capture antibody was diluted with 10 mM sodium acetate, pH 5.0 at 50 μg/ml before injection at a flow rate of 10 μl/minute to achieve approximately up to 10.000 response units (RU) of coupled capture antibody. Following the injection of the capture antibody, 1 M ethanolamine was injected to block unreacted groups. For kinetics measurements, Fabs from bacterial supernatant or purified Fabs are injected at a flow rate of 10 ul/minute for 300 s and a dissociation of 300 s for capture baseline stabilization. […] The surface of the sensorchip was regenerated by injection of glycine pH 1.5 for 30 s at 90 ul/min followed by injection of NaOH for 20 s at the same flow rate. Association rates (kon) and dissociation rates (koff) were calculated using a simple one-to-one Langmuir binding model (ProteOn XPR36 Evaluation Software or Scrubber software (BioLogic)) by simultaneously fitting the association and dissociation sensorgrams. The equilibrium dissociation constant (KD) was calculated as the ratio koff/kon. […] Since CDR1 and 2 of the light chain were randomized independent from CDR3, the obtained CDRs were combined during IgG conversion.
(§2) In the IgG format affinities were measured again to the human MCSP antigen (SEQ ID NO. 390), in addition also to the cynomolgus homologue (SEQ ID NO. 389). Method exactly as described for the Fab fragments, just purified IgG from mammalian production were used.

cynomolgus MCSP D3 = target: T2, cynomolgus MCSP D3 (cynomolgus, UniProt Q6UVK1 1582-2224 (human entry)); experiment: as above
T2 construct: also called cynomolgus homologue; not shown: C-terminal tag
T2 chain: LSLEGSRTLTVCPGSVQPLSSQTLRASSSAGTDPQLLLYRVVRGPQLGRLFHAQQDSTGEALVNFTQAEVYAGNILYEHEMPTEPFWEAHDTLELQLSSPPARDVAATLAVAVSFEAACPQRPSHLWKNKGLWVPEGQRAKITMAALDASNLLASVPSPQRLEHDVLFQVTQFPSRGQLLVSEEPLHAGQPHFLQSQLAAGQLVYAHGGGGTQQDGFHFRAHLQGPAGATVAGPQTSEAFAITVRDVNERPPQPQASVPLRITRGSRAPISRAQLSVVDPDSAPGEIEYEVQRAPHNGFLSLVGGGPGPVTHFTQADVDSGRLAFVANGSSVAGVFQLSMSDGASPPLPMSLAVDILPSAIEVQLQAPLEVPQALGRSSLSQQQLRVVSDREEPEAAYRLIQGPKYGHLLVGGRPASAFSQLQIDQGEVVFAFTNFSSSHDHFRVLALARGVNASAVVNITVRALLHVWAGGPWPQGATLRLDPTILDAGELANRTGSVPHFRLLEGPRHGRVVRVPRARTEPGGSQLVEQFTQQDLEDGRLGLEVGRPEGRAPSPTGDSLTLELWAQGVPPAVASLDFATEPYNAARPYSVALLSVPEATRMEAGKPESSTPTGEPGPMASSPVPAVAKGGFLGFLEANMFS
Description: as §1, §2

[2] = target: T1, hu-MCSP(D3 domain)-avi-his; experiment: SPR (ProteOn XPR36), IgG captured, antigen as analyte
Description: Briefly, carboxymethylated dextran biosensor chips (CM5, GE Healthcare) were activated with N-ethyl-N′-(3-dimethylaminopropyl)-carbodiimide hydrochloride (EDC) and N-hydroxysuccinimide (NHS) according to the supplier's instructions. Anti-human F(ab′)2 fragment specific capture antibody was diluted with 10 mM sodium acetate, pH 5.0 at 50 μg/ml before injection at a flow rate of 10 μl/minute to achieve approximately up to 10.000 response units (RU) of coupled capture antibody. Following the injection of the capture antibody, 1 M ethanolamine was injected to block unreacted groups. For kinetics measurements, Fabs from bacterial supernatant or purified Fabs are injected at a flow rate of 10 ul/minute for 300 s and a dissociation of 300 s for capture baseline stabilization. […] Association rates (kon) and dissociation rates (koff) were calculated using a simple one-to-one Langmuir binding model (ProteOn XPR36 Evaluation Software or Scrubber software (BioLogic)) by simultaneously fitting the association and dissociation sensorgrams. The equilibrium dissociation constant (KD) was calculated as the ratio koff/kon. […]
In the IgG format affinities were measured again to the human MCSP antigen (SEQ ID NO. 390), in addition also to the cynomolgus homologue (SEQ ID NO. 389). […]

Comparative binding affinity - Fold increase over parent [1]: 28.6 fold | Comparative binding affinity - Fold increase over parent (cynomolgus MCSP D3): 10 fold | Kd [2]: 0.07 nM
B1: M4-3(A7)/ML2(C5) (IgG) (antibody, V domains shown)
VH: QVQLQESGPGLVKPSQTLSLTCTVSGGSITDGYYWNWIRQHPGKGLEWIGYITFDGRNNYNPSLKSRVTISRDTSKNQFSLKLSSVTAADTAVYYCADFDYWGQGTLVTVSS
VL: DIQMTQSPSSLSASVGDRVTITCRASRGIREYLNWYQQKPGKAPKLLIYYTGSLHSGVPSRFSGSGSGTDFTLTISSLQPEDFATYYCQQYSELPWTFGQGTKVEIK
notes: Human IgG1 format

Reference: patent US20180086849A1 (Hoffmann-La Roche, published 2018)
